Data on 1 substance can be found in patent publication US20220281949A1.

This test has as its target DR1-restricted TCR HA1.7. The test is described as follows: flow cytometry: HA1.7-transduced primary CD4+ T cells stained with PE wild-type DR1 dextramer and anti-CD4. On the technique in general: A flow cytometer gives signals particle by particle.

The substance “wild-type DR1 dextramer specific to Flu-HA306-318 (peptide-MHC)” gave a percent of cells in the dextramer+ CD4+ quadrant of 30.4%.
